T1: α11β1 I Domain (Homo sapiens, UniProt Q9UKX5)
T1 sequence (Q9UKX5 164-345 limits assumed): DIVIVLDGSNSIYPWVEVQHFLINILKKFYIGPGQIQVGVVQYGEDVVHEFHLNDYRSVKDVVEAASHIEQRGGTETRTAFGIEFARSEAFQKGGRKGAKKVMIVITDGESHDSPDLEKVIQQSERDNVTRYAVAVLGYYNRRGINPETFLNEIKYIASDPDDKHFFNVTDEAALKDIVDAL


How the values were obtained:
α11β1 Headpiece = assay: SPR binding to α11β1 Headpiece; design: species or system human; details: in words
Experimental: (§1) The affinity of antibodies for human α11β1 was measured by surface plasmon resonance assay (SPR). Affinity was measured at pH 7.6 and 25° C. with a Biacore T200 instrument. Anti-HIS antibody was immobilized on the SPR sensor surface using EDC/NHS covalent attachment. HIS-tagged human α11β1 was captured on the sensor surface and a single-cycle kinetics assay was used. Increasing concentrations of test antibody were injected in series over the sensor-bound α11β1. Dissociation was monitored for 1000 seconds. A sensor surface with only anti-HIS antibody and a series of blank injections were used to double-reference subtract the data. A 1:1 Langmuir model was fit to the data to estimate the kinetic association and dissociation constants. The affinity (equilibrium dissociation constant) of the interaction was calculated by dividing the kinetic dissociation constant by the kinetic association constant. Between injection cycles α11β1 and bound antibody were removed with an injection of 10 mM glycine at pH 1.5.
(§2) The binding affinity of antibodies for the α11β1 Headpiece and α11β1 I Domain as measured by SPR is shown in FIG. 10A and FIG. 10B, respectively.

[1] = tested on: human Precision-Cut Kidney Slices (PCKS); assay: Precision-Cut Kidney Slices (PCKS); format: cell-based; details: 72- and 96-hour time points at each dose tested (1, 10 and 50 μg/mL)
Experimental: PCKS were prepared from explanted fibrotic human kidney tissue and rested for 24 hours to allow the post-slicing stress period to elapse before experiments began. PCKS were cultured with TGF-β1 (3 ng/mL) and PDGFββ (50 ng/mL) in the presence or absence of Alk5i (10 μM, positive control), test anti-α11β1 antibodies over three doses (1, 10 and 50 μg/mL) or in the presence of IgG control antibodies at a single high dose. PCKS culture media was harvested every 24 hours for a total of 3 time points. Levels of Collagen type I α1 (col1a1) in the tissue culture supernatants were quantified using R&D Duoset ELISA kits. Statistics were performed using Two-way ANOVA followed by Dunnett's multiple comparisons test.
As described in the methods above, PCKS were prepared from explanted fibrotic human kidney tissue and rested for 24 hours to allow the post-slicing stress period to elapse before experiments began. PCKS were cultured with TGF-β1 (3 ng/ml) and PDGFββ (50 ng/mL) in the presence or absence of Alk5i (10 μM, positive control), test anti-α11β1 antibodies over three doses (1, 10 and 50 μg/mL) or in the presence of IgG control antibodies at a single high dose. PCKS culture media was harvested every 24 hours for a total of 3 time points. Levels of Collagen type I α1 (col1a1) in the tissue culture supernatants were quantified using R&D Duoset ELISA kits. […]

[2] = tested on: CHO-K1 human α11-mediated rat tail type I collagen gel contraction; assay: Collagen gel contraction assay; format: cell-based; details: compared to untreated condition
Experimental: 24-well plates were blocked with 2% BSA in PBS overnight at 37° C. The following day, the plates were washed 3 times with PBS before being used in the assay. Human CHO cell lines expressing α11 were harvested and resuspended at 1.25×10^6 in ExpiCHO Expression Medium (Gibco™ Cat #A2910002). The collagen gel solution was prepared by diluting 3 mg/mL stock collagen type I (Gibco™ Collagen I Rat Protein, Tail Cat #A1048301) to 1 mg/mL in the media containing the CHO cells. Sodium hydroxide was added to the solution to neutralize the pH and 400 μL of the collagen solution was added to each well of the 24-well plates. For the wells where the antibodies were included in the collagen gel solution, CHO cells were prepared at 2.5×10^6 and the antibodies were prepared at 2× final concentration in ExpiCHO media. The cells and antibodies were then combined 1:1 before the addition of the stock collagen type 1. The gels were allowed to polymerize for 60 minutes at 37° C. Antibodies were added to the ExpiCHO media, which was then layered on top of the polymerized gel (400 μL/well). The gels were incubated for 6 days at 37° C. before gel contraction was quantified. Images of each well were analyzed using Image J and gel contraction was determined as a percentage of the initial gel area.
Selected exemplary antibodies were tested for the ability to inhibit cell-mediated 3D gel contraction because this ability is directly linked to the functionality of the exemplary antibodies.

α11β1 I Domain [3] = molecular target: T1, α11β1 I Domain; assay: SPR binding to α11β1 I Domain; details: in words
Experimental: as §1, §2

A549 cell xenografts = assay: Tumor xenograft model; format: in vivo, C.B-17 SCID mice; details: A549 xenograft, SCID mice
Experimental: Fifty-six female C.B-17 SCID mice were inoculated with A549 cells (5×10^6 cells/mouse) subcutaneously in the flank. Once tumor volume reached ˜100 mm^3, animals were randomized amongst 7 groups of 8 mice each. Mice were then treated intraperitonealy every 3 days for a total of 7 doses with isotype controls or novel mAbs 79E3E3, 16E10 and 9G04 (2 and 20 mg/kg) or with docetaxel at 10 mg/kg every 4 days for a total of 6 doses. Tumor volumes and body weights were recorded twice a week with a gap of 2-3 days in between two measurements until any of the following conditions defined were observed: loss of 20% or more body weight; tumors that inhibit normal physiological function such as eating, drinking, and mobility; ulcerated tumors; tumor size greater than 2000 mm^3 and clinical observations of prostration, paralysis, seizures and hemorrhages.
In this example, studies were performed to determine if inhibition of α11β1 function with mAb results in xenograft growth inhibition. As shown in FIG. 16 and Table 4, blocking α11β1 on mouse CAFs impeded xenograft growth in SCID mice.

α1β1, α2β1 and/or α10β1 = assay: Counter-screen against other collagen receptors (off target); format: binding, human
Experimental: Wistar rats were immunized with recombinant human α11β1 protein. An enzyme-linked immunosorbent assay (ELISA) was used to test an immune response against target human and mouse proteins. Subsequently, cell fusion (by electro fusion) was performed with animals that produced a good immune response. All fused cells were plated in a 96-well plate and supernatants were screened by ELISA against soluble human and mouse α11β1. Positive clones were counter-screened against human α1β1, α2β1 and α10β1. […] Purified antibodies were then generated from the selected clones and heavy chain and light chain variable domain sequences were obtained from each purified antibody.
10 mice from 5 different strains were immunized with an appropriate mixture of human α11β1, mouse α11β1 and tolerance breaking protein. Plasma titers were evaluated by ELISA against a mixture of human and mouse α11β1. Popliteal, inguinal, and iliac lymph nodes were collected. ELISA-positive anti-human/mouse α11β1 hybridomas were expanded and subjected to a secondary screen against human and mouse α11β1, control HIS protein, and a counter-screen was performed against human […], α2β1 and α10β1. Supernatant IgG concentration was sufficient for functional screening. […]

α11β1 I Domain [4] = molecular target: T1, α11β1 I Domain; assay: ELISA binding to in-house generated α11β1 I domain; design: An in-house generated I domain of α11β1 was used; made in house; details: in words
Experimental: 0.25 μg/mL of target antigen (recombinant human or mouse α11β1) was plated in a 96-well plate over night at 4° C. Plates were washed (PBS with 0.1% Tween-20), blocked (PBS with 2% BSA and 0.05% Tween-20) for 1 hour at room temperature and incubated with a range of antibody concentrations for 1 hour at room temperature. Subsequently, plates were washed and incubated with biotinylated anti-rabbit/mouse/human IgG in a 1:1000 dilution buffer and incubated for 1 hour at room temperature. After washing the plates, Streptavidin HRP was added at 1:200 in dilution buffer and incubated for 1 hour at room temperature. Ultra TMB ELISA substrate solution was added and the plates incubated for 5 minutes on a plate shaker. The reaction was stopped by adding stop solution to each well and plates were read at 450 nm.
Data was also collected to determine whether antibodies of interest bind to the I domain of α11β1. An in-house generated I domain of α11β1 was used. […] Mouse antibodies 10-F23, 10-L15, 7-O8, 6-A12, 9-G05 and 9-E16 and rabbit antibodies 7-H12 and 2-D3 were also tested for binding against the in-house generated α11β1 I domain. FIGS. 3A and 3B show graphs illustrating binding data from exemplary mAbs.

| Molecule | Binding to α11β1 headpiece domain (SPR) (α11β1 Headpiece) | Inhibition of col1a1 secretion [1] | Inhibition of CHO-hu α11-mediated collagen gel contraction [2] | Binding to α11β1 I domain (SPR) (α11β1 I Domain [3]) | Tumor growth inhibition compared to isotype control (A549 cell xenografts) | Cross-reactivity with other collagen receptors (α1β1, α2β1 and/or α10β1) | Binding to the I domain of α11β1 (α11β1 I Domain [4]) |
| --- | --- | --- | --- | --- | --- | --- | --- |
| 1994_01_C07: fully human anti-α11β1 mAb from phage display; HCDR3 SEQ ID NO: 267, LCDR3 SEQ ID NO: 271 (antibody, V domains shown) VH: QVQLVQSGAEVKKPGASVKVSCKASGYTFTSYGISWVRQAPGQGLEWMGWISAYNGNTNYAQKLQGRVTMTTDTSTSTAYMELRSLRSDDTAAYYCARVTGITGTTIDPWGQGTMVTVSS VL: DIQMTQSPSSLSASVGDRVTITCRASQSISSYLNWYQQKPGKAPKLLIYDASSLESGVPSRFSGSGSGTEFTLTISSLQPDDFAVYYCQQYNNWPQTFGQGTKVEIK | do not bind | significant inhibition of col1a1 secretion | inhibited | do not bind |  |  |  |
| 16E10: rabbit anti-α11β1 mAb; heavy chain SEQ ID NO: 161, light chain SEQ ID NO: 162 (antibody) heavy: METGLRWLLLVAVLKGVQCQSLEESGGDLVKPGASLTLTCRVSGFSFSSSYYMCWVRQAPGKGLEWIACIGTTRGSTYYATWAKGRFTISKISSTTVTLQMTSLTDADTATYFCARDATGYRINTIGLYFNLWGPGTLVTVSSGQPKAPSVFPLAPCCGDTPSSTVTLGCLVKGYLPEPVTVTWNSGTLTNGVRTFPSVRQSSGLYSLSSVVSVTSSSQPVTCNVAHPATNTKVDKTVAPSTCSKPMCPPPELPGGPSVFIFPPKPKDTLMISRTPEVTCVVVDVSQDDPEVQFTWYINNEQVRTARPPLREQQFNSTIRVVSTLPIAHQDWLRGKEFKCKVHNKALPAPIEKTISKARGQPLEPKVYTMGPPREELSSRSVSLTCMINGFYPSDISVEWEKNGKAEDNYKTTPTVLDSDGSYFLYSKLSVPTSEWQRGDVFTCSVMHEALHNHYTQKSISRSPGK light: MDTRAPTQLLGLLLLWLPGARCAFELTQTPSSVEAAVGGTPTIKCQASQTIYSYLSWYQQKPGQPPKLLIYEASKLASGVPSRFSGSGSGTDYTLTISDLECADAATYYCQSYHGTASTEYNTFGGGTEVVVRGDPVAPTVLIFPPAADQVATGTVTIVCVANKYFPDVTVTWEVDGTTQTTGIENSKTPQNSADCTYNLSSTLTLTSTQYNSHKEYTCKVTQGTTSVVQSFNRGDC | do not bind |  | inhibited | do not bind | no significant inhibition of tumor growth |  |  |
| 40G10H11: rat anti-α11β1 mAb; VH SEQ ID NO: 157, VL SEQ ID NO: 158 (antibody, V domains shown) VH: MDIRLSLGFLVLFIKGDQCAVQLVESGGGLVQPGRSLKLSCAASRITFTDYYMAWVRQAPTKGLEWVATISSDGGDTFYRDSVKGRFTISRDNAKSTLYLQMVSLRSEDTATYYCSTDRGAQFGYWGQGTLVTVSS VL: MAPVQLLGLLLIWLPAMRCDIQMTQSPSFLSASVGDRVSINCKASQNVHENLNWYQQKLGEAPKRLIYNTNNLQTGIPSRFSGSGSGADYTLTISSLQPEDFATYFCLQHNAFPYTFGPGTKLELK |  |  |  |  |  | does cross-react with other collagen receptors | not found to be an I-domain binder |
| 79E3E3: rat anti-α11β1 mAb; VH SEQ ID NO: 145, VL SEQ ID NO: 146 (antibody, V domains shown) VH: MDWLWNLLFLMVVAQSAQAQIQLVQSGPEVKKPGESVKISCKASGYTFTDYAMNWVKQAPGNGLKWMGWINTQTGKPTYADDFKQRFVFSLETSARTTYLQINNLNIEDTATYFCTRLGTGNTKGFAYWGQGTLVTVSS VL: MESQTHVLISLLLCVSGTCGDILINQSPASLTVSAGERVTMSCKSSQSLLYSENNQDYLAWYQQKPGQFPKLLIYGASNRHTGVPDRFTGSGSGTDFTLTISSVQAEDLADYYCEQTYRYPFTFGSGTKLEIK |  |  | inhibited | do bind | significantly inhibited tumor growth |  | high and I-domain binder |

Source: patent US20240317865A1, “ANTIBODIES AGAINST INTEGRIN ALPHA 11 BETA 1” (MOMENTA PHARMACEUTICALS, INC., priority 2020, published 2024)
